Here are results for 17 molecules from patent US20220127355A1 (INTEGRAL MOLECULAR, published 2022).

The target in assay [1] is T1, Claudin 6 (human) (human, UniProt P56747 1-220).
T1 construct: Expressed on transfected HEK-293T cells or naturally on PA-1 cells for flow cytometry; For the Octet KD values it was the intact protein embedded in virus-like particles (lipoparticles); also called hsCLDN6; CLDN6
T1 chain: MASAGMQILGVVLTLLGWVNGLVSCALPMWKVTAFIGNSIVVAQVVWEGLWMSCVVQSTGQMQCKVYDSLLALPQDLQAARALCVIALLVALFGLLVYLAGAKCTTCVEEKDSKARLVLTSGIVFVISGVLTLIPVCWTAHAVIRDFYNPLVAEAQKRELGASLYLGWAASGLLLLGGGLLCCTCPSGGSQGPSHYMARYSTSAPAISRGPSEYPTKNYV
Kind of assay: binding assay of the 13th table, method not described.

Assay [2] has as its target T1, Claudin 6 (human). Kind of assay: flow cytometry, 66 nM MAb on HEK-293T cells expressing claudin6. The procedure:
Expression and Binding of claudin6 MAbs. Claudin 6 MAbs produced using their natural light chain, or produced using a different light chain. Yield represents the preparation of the purified MAb and ug of protein resulting from the preparation. Binding represents 66 nM of the indicated MAb binding to HEK-293T cells expressing the target claudin6. The Controls represents the same MAbs staining HEK-293T cells not transfectedwith claudin6. Staining was detected by flow cytometry (geometric mean fluorescence). N/A, not available.
A general note: A flow cytometer gives signals particle by particle.

The target in assay [3] is T1, Claudin 6 (human). Put plainly: flow cytometry, HEK-293T cells transfected with plasmids for the indicated proteins; pUC = empty vector control.
In another assay the target is T2, Claudin 9 (UniProt O95484 1-217).
T2 construct: Octet KD values: intact claudin protein embedded in virus-like particles (lipoparticles); also called CLDN9
T2 sequence (looked up): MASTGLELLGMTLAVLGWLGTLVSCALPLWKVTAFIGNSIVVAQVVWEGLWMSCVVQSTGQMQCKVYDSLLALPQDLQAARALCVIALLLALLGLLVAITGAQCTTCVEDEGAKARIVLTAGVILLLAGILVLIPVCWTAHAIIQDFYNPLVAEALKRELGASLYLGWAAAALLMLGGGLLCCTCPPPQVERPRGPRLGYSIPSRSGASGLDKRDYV
Put plainly: biosensor (Forte Octet), intact claudin in virus-like particles (lipoparticles). The procedure:
Affinity of various antibodies against CLDN6 as compared to CLDN9, CLDN3, and CLDN4 was measured using a biosensor. Biosensor affinity measurement of the various antibodies against the proteins was determined using a Forte Octet, which was used for biosensor measurements, using intact claudin proteins embedded in virus-like particles (lipoparticles). The KD for different antibodies is shown below.

For a further assay, the target named is T3, Claudin 4 (UniProt O14493 1-209).
T3 construct: also called CLDN4
T3 sequence (looked up): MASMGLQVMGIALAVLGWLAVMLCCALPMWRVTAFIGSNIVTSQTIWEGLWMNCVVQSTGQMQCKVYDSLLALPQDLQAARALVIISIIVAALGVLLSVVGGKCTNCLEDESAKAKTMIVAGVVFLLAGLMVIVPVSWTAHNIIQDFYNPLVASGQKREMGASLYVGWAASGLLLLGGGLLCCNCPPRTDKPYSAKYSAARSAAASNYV
Kind of assay: flow cytometry, HEK-293T cells transiently transfected with the indicated claudin; pUC19 = empty vector control. The procedure:
(§1) FIG. 2 illustrates the results of a binding assay showing that Claudin 6 MAbs bind to human Claudin 6 preferentially over other Claudin proteins. Human embryonic kidney 293T (HEK-293T) cells were transiently transfected with DNA for the indicated Claudin protein or empty vector along with GFP (pUC) for 22 hours.

For a further assay, the target named is T4, Claudin 3 (UniProt O15551 1-220).
T4 construct: also called CLDN3
T4 sequence (looked up): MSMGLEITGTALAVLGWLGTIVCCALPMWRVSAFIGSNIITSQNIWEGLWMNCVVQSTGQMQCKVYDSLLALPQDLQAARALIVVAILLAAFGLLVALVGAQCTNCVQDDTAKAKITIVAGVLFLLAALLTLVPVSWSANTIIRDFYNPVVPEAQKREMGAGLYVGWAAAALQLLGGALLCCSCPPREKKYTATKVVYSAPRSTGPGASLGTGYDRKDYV
Described as above. The procedure:
as §1

Where a chain is given by its changes, count along the chain named. Where only a bound is given, the exact number is not on record here.

B1: IM-271-1HBF (antibody, V domains shown)
VH: EVQLLESGGGLVQPGGSLRLSCAASGFTFSSYAMNWVRQAPGKGLEWVAGISSSGRYTGYADSVKGRFTISRDNSKNTLYLQMNSLRAEDTAVYYCAKSVGSGVSWSGYVATSIDAWGQGTLVTVSS
VL: SYELTQPPSVSVSPGQTARITCSAGSGLYGWYQQKPGQAPVLVIYGTNKRPSGIPERFSGSSSGTTVTLTISGVQAEDEADYYCGSADSSTNAGIFGGGTKLTVL
notes: also called CH-HAMF5-1HBF
The term EC50 denotes the concentration needed to bring the measured effect to its halfway point. A higher EC50 goes with weaker potency. For B1, the EC50 in the assay with Claudin 6 (human) [1] was less than 4 nM.

B2: IM180 w/ F10h cLC (antibody, V domains shown)
VH: B1 VH with T28D, S52G, S54T, R56S, Y57S, S102N, V104N, V110I
VL: SYELTQPPSVSVSPGQTARITCSGGYNGHYGWYQQKPGQAPVLVIYSNNQRPSGIPERFSGSSSGTTVTLTISGVQAEDEADYYCGGYDSSAGIFGGGTKLTVL
notes: IM180 heavy chain paired with the common light chain F10h
B2: the “Binding (geometric mean fluorescence)” value with Claudin 6 (human) [2] is 10100 geometric mean fluorescence.

B3: IM180 (antibody, V domains shown)
VH: B1 VH with T28D, S52G, S54T, R56S, Y57S, S102N, V104N, V110I
VL: SYELTQPPSVSVSPGQTARITCSGGSSGYGWYQQKPGQAPVLVIYSNDKRPSGIPERFSGSSSGTTVTLTISGVQAEDEADYYCGSTDNSYVGIFGGGTKLTVL
notes: Produced with its natural light chain
Turning to B3, in the assay with Claudin 6 (human) [2], the “Binding (geometric mean fluorescence)” value was 46900 geometric mean fluorescence.

B4: IM-271-1HBG (antibody, V domains shown)
VH: B1 VH with V100M
VL: B1 VL
notes: also called CH-HAMF5-1HBG
B4 showed an EC50 with Claudin 6 (human) [1] of less than 4 nM.

B5: IM-271-1HAQ (antibody, V domains shown)
VH: B1 VH with N35S, S102N, V104N
VL: B1 VL with A24G, L28S
notes: also called CH-HAMF5-1HAQ
In the assay with Claudin 6 (human) [1], B5 registered an EC50 of less than 4 nM.

B6: IM-271-1HHP (antibody, V domains shown)
VH: B1 VH with I114L, A116V
VL: B1 VL with A24G, L28S, N48Y
notes: also called CH-HAMF5-1HHP
B6: in the assay with Claudin 6 (human) [1], the EC50 was less than 4 nM.

B7: IM-271-1HHR (antibody, V domains shown)
VH: B1 VH with V100M, I114L, A116V
VL: B1 VL with A24G, L28S, N48Y
notes: also called CH-HAMF5-1HHR
Take B7: in the assay with Claudin 6 (human) [1], the EC50 is less than 4 nM.

B8: IM-271-1HGT (antibody, V domains shown)
VH: B1 VH with I114L, A116V
VL: B1 VL with A87N, S89A
notes: also called CH-HAMF5-1HGT
In the assay with Claudin 6 (human) [1], B8 returned an EC50 of less than 4 nM.

B9: IM271 w/ F10h cLC (antibody, V domains shown)
VH: B1 VH with N35S, S102N, V104N, V110I
VL: B2 VL
notes: IM271 heavy chain paired with the common light chain F10h
As to B9, in the assay with Claudin 6 (human) [2], the “Binding (geometric mean fluorescence)” value was 160000 geometric mean fluorescence.

B10: IM271 (antibody, V domains shown)
VH: B1 VH with N35S, S102N, V104N, V110I
VL: B1 VL with A24G, L28S
For orientation: EC50 (read off the curve) means the concentration that produces a half-maximal response. A high value points to weaker potency. For B10, in the assay with Claudin 6 (human) [2], the “Binding (geometric mean fluorescence)” value is 63000 geometric mean fluorescence. Moreover, the “EC50 (read off the curve)” value with Claudin 6 (human) [3] is approximately 0.4 µg/mL. For the same molecule, the EC50 with Claudin 6 (human) [1] was less than 4 nM.

B11: IM-271-1HFB (antibody, V domains shown)
VH: B1 VH with V100M
VL: B1 VL with A24G, L28S, N48Y
notes: also called CH-HAMF5-1HFB
In the assay with Claudin 6 (human) [1], B11 came in with an EC50 of less than 4 nM.

B12: IM-271-1HFJ (antibody, V domains shown)
VH: B1 VH with V100M, A116V
VL: B1 VL
notes: also called CH-HAMF5-1HFJ
On to B12, for which, in the assay with Claudin 6 (human) [1], the EC50 was less than 4 nM.

B13: IM-271-1HEP (antibody, V domains shown)
VH: B1 VH with I114L
VL: B1 VL
notes: T0003 prints the label CH-HAMF5-MEP; Tied by the suffix only; also called CH-HAMF5-1HEP; CH-HAMF5-MEP
The molecule B13 yielded an EC50 with Claudin 6 (human) [1] of less than 4 nM.

B14: IM136 (antibody, V domains shown)
VH: AVTLDESGGGLQTPGGVLSLVCKASGFSFSSYDMGWVRQAPGKGLEWVASIYSSASSTYYAPAVKGRATITRDNGQSTVRLQLNNLRAEDTGTYYCAKAAGRTYRGWATYIADSIDAWGHGTEVIVSS
VL: ALTQPSSVSANPGESVEITCSGDSSWYGYGWYQQKSPGSAPVTLIYESGKRPSDIPSRFSGSTSGSTATLTITGVQADDEAVYYCGSADSNSIGIFGAGTTLTVL
notes: Detected with anti-human IgG Fc secondary
The term Kd denotes the free concentration of one partner at which half of the binding sites on the other are occupied at equilibrium, for simple one-to-one binding. High values mean a looser complex, low ones a tighter complex. In turn, B14 had a Kd with Claudin 9 of 386 nM. Also, the binding result in the assay with Claudin 4 and with Claudin 3 was “no binding (tested: log [mAb] about -7.2 M)” in each case.

B15: IM172 (antibody, V domains shown)
VH: AVTLDESGGGLQTPGGALSLVCKGSGFSISSYTMQWVRQAPGKGLEWVAGIYSGSRTYYGAAVQGRATISRDNGQSTVRLQLNNLRAEDTGTYYCAKSSYCTAWTGCDVYAGGSIDAWGHGTEVIVSS
VL: ALTQPSSVSATPGGTVEITCSGDSSDDGSYYYGWYQQKSPGSAPVTVIYSNDKRPSSIPSRFSGSASGSTATLTITGVQADDEAVYFCGSYDSSTGIFGAGTTLTVL
notes: as for B14
On to B15, for which binding in the assay with Claudin 9 was put at a Kd of 81 nM.

B16: IM-35-N2H07-1HA (antibody, V domains shown)
VH: EVQLLESGGGLVQPGGSLRLSCAASGFTFSGYAMSWVRQAPGKGLEWVAGIYSSGSYTFYADSVKGRFTISRDNSKNTLYLQMNSLRAEDTAVYYCAKGTGYCDWSGWCYSGAANIDAWGQGTLVTVSS
VL: SYELTQPPSVSVSPGQTARITCSGGSGSYGYYGWYQQKPGQAPVLVIYGTNKRPSGIPERFSGSSSGTTVTLTISGVQAEDEADYYCGSEDSSSGAGIFGGGTKLTVL
With B16, the EC50 with Claudin 6 (human) [1] is less than 4 nM.

B17: IM-35-N1F09-1HA (antibody, V domains shown)
VH: EVQLLESGGGLVQPGGSLRLSCAASGFTFSSYGMSWVRQAPGKGLEWVAGIGSSGIYTHYADSVKGRFTISRDNSKNTLYLQMNSLRAEDTAVYYCAKSPGDSDWCGWAGYGIYSCRVAGFIDAWGQGTLVTVSS
VL: B2 VL with S47G, N48T, Q50K
The molecule B17 gave an EC50 in the assay with Claudin 6 (human) [1] of less than 4 nM.
